# Data as given in paper PMC3914216.
# B1: Mix10 (dsDNA)
# DNA 1: GGGCGTGACTGAGCGCGGCGGCCCCGCG
# DNA 2: CGCGGGGCCGCCGCGCTCAGTCACGCCC
# B2: ATs10 (dsDNA)
# DNA 1: GGGTTTTTTTTTTCGCGGCGGCCCCGCG
# DNA 2: CGCGGGGCCGCCGCGAAAAAAAAAACCC
# modifications: phosphorothioate linkages after each of the 10 T (T4-T13) of strand 1; complement unmodified
# B3: CG10 (dsDNA)
# DNA 1: GGGCCCCCCCCCCCGCGGCGGCCCCGCG
# DNA 2: CGCGGGGCCGCCGCGGGGGGGGGGGCCC
# B4: ATf10 (dsDNA)
# DNA 1: CGCGGGGCCGCCGCGAAAAAAAAAAACCC
# DNA 2: GGGTTTTTTTTTTTCGCGGCGGCCCCGCG
# Experiments:
# HMGA1b [1] = target: T1, HMGA1b (UniProt P17096-2 1-96); test: competition
# HMGA1b [2] = target: T1, HMGA1b; test: competition; remark: listed apart in the source
# HMGA1b [3] = target: T1, HMGA1b; test: EMSA
binder,measurement,setting,value
B1,binding result,HMGA1b [1],no binding
B2,binding signal,HMGA1b [2],~1 ratio to ATf10
B3,binding result,HMGA1b [1],no binding
B4,binding result,HMGA1b [3],binds
